43 molecules from patent US20240279277A1, “PREPARING METHOD OF HIGHLY FUNCTIONAL PEPTIDE DERIVED FROM KERATINOCYTE PROTEIN” (ANPEP INC., priority 2021, published 2024) can be followed below.

This assay addresses T1, elastase (type I: derived from porcine pancreas) (Sus scrofa, UniProt P00772).
T1 construct: type I: derived from porcine pancreas; purchased Sigma Aldrich, USA; host or cells: porcine pancreas (tissue-derived)
Nature of the assay: Elastase inhibition test (p-nitroanilide release, absorbance 410 nm). Particulars: peptides and controls 100 μg/mL; N-succinyl-(L-Ala) 3-p-nitroanilide substrate, 37 °C, 30 minutes. Type of assay: biochemical. Here is the method: In order to confirm the anti-wrinkle effect of tetrapeptides, a test of inhibiting elastase was performed. The amount of p-nitroanilide produced was measured using N-succinyl-(L-Aal) 3-p-nitroanilide as a substrate at 37 °C for 30 minutes. After adding each of the peptides to be tested and negative and positive controls in an amount of 100 μg/mL into test tube, respectively, a pancreatic solution (type I: derived from porcine pancreas, 0.6 unit/mL, Sigma Aldrich, USA) in an amount of […] was added thereto. Thereafter, a substrate, in which N-succinyl-(L-Ala) 3-p-nitroanilide (1 mg/mL) was dissolved in 50 mM Tris-HCl buffer (pH 8.6), was added in an amount of […] thereto and allowed to react for 30 minutes and the absorbance was measured at 410 nm using a microplate reader. The elastase inhibitory activity was expressed as a decrease rate in absorbance of the groups with and without the addition of the sample solution as shown in Equation 1 below.
After treating the 42 kinds of synthesized peptides, their effects on inhibition of elastase were measured.

T1 sequence (P00772 27-266): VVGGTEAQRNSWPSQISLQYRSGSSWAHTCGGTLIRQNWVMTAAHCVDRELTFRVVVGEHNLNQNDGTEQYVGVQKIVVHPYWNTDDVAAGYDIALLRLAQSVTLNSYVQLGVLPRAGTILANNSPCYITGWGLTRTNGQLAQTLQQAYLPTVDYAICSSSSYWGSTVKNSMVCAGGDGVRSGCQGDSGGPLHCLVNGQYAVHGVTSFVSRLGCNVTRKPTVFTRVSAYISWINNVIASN

On to “EQQE [25] (Tetra Peptide) [Sample 25, tetrapeptide]”, for which the “Elastase Inhibition Rate(%)” value came to 53.6%.
Under “LEVP (Tetra Peptide) [Sample 31, tetrapeptide]” stands 70.6%; under “QPSY (Tetra Peptide) [Sample 15, tetrapeptide]”, 63.5%.
Next, “SQQV (Tetra Peptide) [Sample 12, tetrapeptide]”: 49.3%; “PPVD (Tetra Peptide) [Sample 4, tetrapeptide]”: 72.5%; “PTPQ (Tetra Peptide) [Sample 3, tetrapeptide]”: 69.3%.
Next, “VEHQ (Tetra Peptide) [Sample 40, tetrapeptide]”: 55.7%; “QLKY (Tetra Peptide) [Sample 35, tetrapeptide]”: 60.5%; “SGGS (Tetra Peptide) [Sample 8, tetrapeptide]”: 49.6%.
With “DCVK (Tetra Peptide) [Sample 5, tetrapeptide]”, the “Elastase Inhibition Rate(%)” value came out at 118.4%.
As for `C[C@H]1[C@H](C)CC[C@]2(C(=O)O)CC[C@]3(C)C(=CC[C@@H]4[C@@]5(C)CCC(=O)C(C)(C)[C@@H]5CC[C@]43C)[C@H]12` [Ursonic acid, reference compound], the “Elastase Inhibition Rate(%)” value was 28.8%.
Under “EHQE (Tetra Peptide) [Sample 29, tetrapeptide]” stands 66.3%; under “KHLE (Tetra Peptide) [Sample 28, tetrapeptide]”, 79.3%.
For “FSSG (Tetra Peptide) [Sample 22, tetrapeptide]”, the “Elastase Inhibition Rate(%)” value was 69.1%.
Under “CAPQ (Tetra Peptide) [Sample 14, tetrapeptide]” stands 77.2%.
Under “LELP (Tetra Peptide) [Sample 26, tetrapeptide]” stands 78.2%; under “GCFS (Tetra Peptide) [Sample 20, tetrapeptide]”, 55.2%; under GGSG [Sample 18], 103.5%.
Next, “GQDP (Tetra Peptide) [Sample 34, tetrapeptide]”: 34.5%.
Regarding “PEEQ (Tetra Peptide) [Sample 32, tetrapeptide]”, the “Elastase Inhibition Rate(%)” value came to 64.0%.
Next, “MSYQ (Tetra Peptide) [Sample 1, tetrapeptide]”: 79.4%.
Consider “EGQL (Tetra Peptide) [Sample 30, tetrapeptide]”, for which the “Elastase Inhibition Rate(%)” value was 69.7%.
Next, “CFSS (Tetra Peptide) [Sample 21, tetrapeptide]”: 47.4%.
Under “GYVS (Tetra Peptide) [Sample 11, tetrapeptide]” stands 78.5%.
Under “SSGG (Tetra Peptide) [Sample 17, tetrapeptide]” stands 77.0%; under “VKTS (Tetra Peptide) [Sample 6, tetrapeptide]”, 66.3%.
Turning to “GSGY (Tetra Peptide) [Sample 9, tetrapeptide]”, the “Elastase Inhibition Rate(%)” value is recorded as 56.3%.
“QMGQ (Tetra Peptide) [Sample 33, tetrapeptide]”: the “Elastase Inhibition Rate(%)” value worked out at 55.6%.
Next, “VLLP (Tetra Peptide) [Sample 39, tetrapeptide]”: 60.7%.
Next, “TKGE (Tetra Peptide) [Sample 38, tetrapeptide]”: 59.3%; “GQLE (Tetra Peptide) [Sample 23, tetrapeptide]”: 73.2%; “EQQE [37] (Tetra Peptide) [Sample 37, tetrapeptide]”: 64.2%.
Under “QKKQ (Tetra Peptide) [Sample 2, tetrapeptide]” stands 88.7%; under “GQVS (Tetra Peptide) [Sample 10, tetrapeptide]”, 33.9%; under “YGGG (Tetra Peptide) [Sample 16, tetrapeptide]”, 67.1%.
For “YLEQ (Tetra Peptide) [Sample 36, tetrapeptide]”, the “Elastase Inhibition Rate(%)” value is 72.3%.
In the case of “EVQW (Tetra Peptide) [Sample 42, tetrapeptide]”, the “Elastase Inhibition Rate(%)” value is 49.5%.
Regarding “TQTS (Tetra Peptide) [Sample 13, tetrapeptide]”, the “Elastase Inhibition Rate(%)” value is given as 59.0%.
Under “QQKQ (Tetra Peptide) [Sample 41, tetrapeptide]” stands 72.3%; under “GQLK (Tetra Peptide) [Sample 27, tetrapeptide]”, 56.0%; under “ELPE (Tetra Peptide) [Sample 24, tetrapeptide]”, 90.5%.
Next, “GSSG (Tetra Peptide) [Sample 19, tetrapeptide]”: 58.3%; “KTSG (Tetra Peptide) [Sample 7, tetrapeptide]”: 44.5%.
